Measured values reported in patent EP4663654A1 (Hangzhou Sciwind Biosciences Co., Ltd., dated 2025).
Starred links: 1 amine or outer side, 2 acyl side, 3 side chain; linkers in the order of their positions; H or OH if unused. Non-standard residues stand in square brackets, D forms with d. *: point of attachment. C20 diacid = O=C(O)CCCCCCCCCCCCCCCCCCC(=O)*; γGlu = O=C(O)[C@H](CCC(=O)[*:2])N[*:1]; βAsp = O=C(O)[C@H](CC(=O)[*:2])N[*:1]; Hyp = O=C(O)[C@@H]1C[C@@H](O)CN1

T1: human amylin receptor (AMY3) on CHO-K1/Ga15/AMY3 amylin receptor/CRE-luc cells (human, UniProt P30988 25-474; O60896 24-148)
T1 sequence (looked up) 1: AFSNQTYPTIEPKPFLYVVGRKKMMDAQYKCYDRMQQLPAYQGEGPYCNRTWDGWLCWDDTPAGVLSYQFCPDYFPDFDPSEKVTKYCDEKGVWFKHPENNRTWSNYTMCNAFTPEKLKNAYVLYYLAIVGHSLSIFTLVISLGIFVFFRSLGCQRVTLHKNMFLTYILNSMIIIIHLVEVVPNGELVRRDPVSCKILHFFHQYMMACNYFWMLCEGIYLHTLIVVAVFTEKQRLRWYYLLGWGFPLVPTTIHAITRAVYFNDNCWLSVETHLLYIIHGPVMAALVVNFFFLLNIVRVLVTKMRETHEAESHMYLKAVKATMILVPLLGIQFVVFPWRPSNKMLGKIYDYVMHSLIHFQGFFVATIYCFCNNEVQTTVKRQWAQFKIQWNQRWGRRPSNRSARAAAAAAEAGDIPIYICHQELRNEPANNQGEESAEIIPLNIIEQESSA
T1 sequence (looked up) 2: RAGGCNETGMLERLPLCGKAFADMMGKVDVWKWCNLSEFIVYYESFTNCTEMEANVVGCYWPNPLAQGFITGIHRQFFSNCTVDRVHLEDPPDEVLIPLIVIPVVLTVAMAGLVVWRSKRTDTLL

B1: polypeptide derivative M12 (peptide)
peptide: {C20 diacid-βAsp}-ASQLSTAATQRLADFLRHFTDRDRDILPPTNVGSNTP-NH2
SMILES: CC[C@H](C)[C@H](NC(=O)[C@H](CC(=O)O)NC(=O)[C@H](CCCNC(=N)N)NC(=O)[C@H](CC(=O)O)NC(=O)[C@H](CCCNC(=N)N)NC(=O)[C@H](CC(=O)O)NC(=O)[C@@H](NC(=O)[C@H](Cc1ccccc1)NC(=O)[C@H](Cc1c[nH]cn1)NC(=O)[C@H](CCCNC(=N)N)NC(=O)[C@H](CC(C)C)NC(=O)[C@H](Cc1ccccc1)NC(=O)[C@H](CC(=O)O)NC(=O)[C@H](C)NC(=O)[C@H](CC(C)C)NC(=O)[C@H](CCCNC(=N)N)NC(=O)[C@H](CCC(N)=O)NC(=O)[C@@H](NC(=O)[C@H](C)NC(=O)[C@H](C)NC(=O)[C@@H](NC(=O)[C@H](CO)NC(=O)[C@H](CC(C)C)NC(=O)[C@H](CCC(N)=O)NC(=O)[C@H](CO)NC(=O)[C@H](C)NC(=O)C[C@H](NC(=O)CCCCCCCCCCCCCCCCCCC(=O)O)C(=O)O)[C@@H](C)O)[C@@H](C)O)[C@@H](C)O)C(=O)N[C@@H](CC(C)C)C(=O)N1CCC[C@H]1C(=O)N1CCC[C@H]1C(=O)N[C@H](C(=O)N[C@@H](CC(N)=O)C(=O)N[C@H](C(=O)NCC(=O)N[C@@H](CO)C(=O)N[C@@H](CC(N)=O)C(=O)N[C@H](C(=O)N1CCC[C@H]1C(N)=O)[C@@H](C)O)C(C)C)[C@@H](C)O
B2: polypeptide derivative M9 (peptide)
peptide: {C20 diacid-γGlu}-ASQLSTAVLQRLADFLRHSSNNLKPILPPTNVGSNT[Hyp]-NH2
SMILES: CC[C@H](C)[C@H](NC(=O)[C@@H]1CCCN1C(=O)[C@H](CCCCN)NC(=O)[C@H](CC(C)C)NC(=O)[C@H](CC(N)=O)NC(=O)[C@H](CC(N)=O)NC(=O)[C@H](CO)NC(=O)[C@H](CO)NC(=O)[C@H](Cc1c[nH]cn1)NC(=O)[C@H](CCCNC(=N)N)NC(=O)[C@H](CC(C)C)NC(=O)[C@H](Cc1ccccc1)NC(=O)[C@H](CC(=O)O)NC(=O)[C@H](C)NC(=O)[C@H](CC(C)C)NC(=O)[C@H](CCCNC(=N)N)NC(=O)[C@H](CCC(N)=O)NC(=O)[C@H](CC(C)C)NC(=O)[C@@H](NC(=O)[C@H](C)NC(=O)[C@@H](NC(=O)[C@H](CO)NC(=O)[C@H](CC(C)C)NC(=O)[C@H](CCC(N)=O)NC(=O)[C@H](CO)NC(=O)[C@H](C)NC(=O)CC[C@H](NC(=O)CCCCCCCCCCCCCCCCCCC(=O)O)C(=O)O)[C@@H](C)O)C(C)C)C(=O)N[C@@H](CC(C)C)C(=O)N1CCC[C@H]1C(=O)N1CCC[C@H]1C(=O)N[C@H](C(=O)N[C@@H](CC(N)=O)C(=O)N[C@H](C(=O)NCC(=O)N[C@@H](CO)C(=O)N[C@@H](CC(N)=O)C(=O)N[C@H](C(=O)N1C[C@H](O)C[C@H]1C(N)=O)[C@@H](C)O)C(C)C)[C@@H](C)O
B3: polypeptide derivative M11 (peptide)
peptide: {C20 diacid}-EASQLSTAATQRLADFLRHFTDRDRDILPPTNVGSNTP-NH2
SMILES: CC[C@H](C)[C@H](NC(=O)[C@H](CC(=O)O)NC(=O)[C@H](CCCNC(=N)N)NC(=O)[C@H](CC(=O)O)NC(=O)[C@H](CCCNC(=N)N)NC(=O)[C@H](CC(=O)O)NC(=O)[C@@H](NC(=O)[C@H](Cc1ccccc1)NC(=O)[C@H](Cc1c[nH]cn1)NC(=O)[C@H](CCCNC(=N)N)NC(=O)[C@H](CC(C)C)NC(=O)[C@H](Cc1ccccc1)NC(=O)[C@H](CC(=O)O)NC(=O)[C@H](C)NC(=O)[C@H](CC(C)C)NC(=O)[C@H](CCCNC(=N)N)NC(=O)[C@H](CCC(N)=O)NC(=O)[C@@H](NC(=O)[C@H](C)NC(=O)[C@H](C)NC(=O)[C@@H](NC(=O)[C@H](CO)NC(=O)[C@H](CC(C)C)NC(=O)[C@H](CCC(N)=O)NC(=O)[C@H](CO)NC(=O)[C@H](C)NC(=O)[C@H](CCC(=O)O)NC(=O)CCCCCCCCCCCCCCCCCCC(=O)O)[C@@H](C)O)[C@@H](C)O)[C@@H](C)O)C(=O)N[C@@H](CC(C)C)C(=O)N1CCC[C@H]1C(=O)N1CCC[C@H]1C(=O)N[C@H](C(=O)N[C@@H](CC(N)=O)C(=O)N[C@H](C(=O)NCC(=O)N[C@@H](CO)C(=O)N[C@@H](CC(N)=O)C(=O)N[C@H](C(=O)N1CCC[C@H]1C(N)=O)[C@@H](C)O)C(C)C)[C@@H](C)O
B4: polypeptide derivative M7 (peptide)
peptide: {C20 diacid-γGlu}-ASQLSTAVTQRLADFLRHSSNNLKPILPPTNVGSNT[Hyp]-NH2
SMILES: CC[C@H](C)[C@H](NC(=O)[C@@H]1CCCN1C(=O)[C@H](CCCCN)NC(=O)[C@H](CC(C)C)NC(=O)[C@H](CC(N)=O)NC(=O)[C@H](CC(N)=O)NC(=O)[C@H](CO)NC(=O)[C@H](CO)NC(=O)[C@H](Cc1c[nH]cn1)NC(=O)[C@H](CCCNC(=N)N)NC(=O)[C@H](CC(C)C)NC(=O)[C@H](Cc1ccccc1)NC(=O)[C@H](CC(=O)O)NC(=O)[C@H](C)NC(=O)[C@H](CC(C)C)NC(=O)[C@H](CCCNC(=N)N)NC(=O)[C@H](CCC(N)=O)NC(=O)[C@@H](NC(=O)[C@@H](NC(=O)[C@H](C)NC(=O)[C@@H](NC(=O)[C@H](CO)NC(=O)[C@H](CC(C)C)NC(=O)[C@H](CCC(N)=O)NC(=O)[C@H](CO)NC(=O)[C@H](C)NC(=O)CC[C@H](NC(=O)CCCCCCCCCCCCCCCCCCC(=O)O)C(=O)O)[C@@H](C)O)C(C)C)[C@@H](C)O)C(=O)N[C@@H](CC(C)C)C(=O)N1CCC[C@H]1C(=O)N1CCC[C@H]1C(=O)N[C@H](C(=O)N[C@@H](CC(N)=O)C(=O)N[C@H](C(=O)NCC(=O)N[C@@H](CO)C(=O)N[C@@H](CC(N)=O)C(=O)N[C@H](C(=O)N1C[C@H](O)C[C@H]1C(N)=O)[C@@H](C)O)C(C)C)[C@@H](C)O
B5: polypeptide derivative M8 (peptide)
peptide: {C20 diacid-γGlu}-ASQLSTAVTQRLADFLRHFTDRDRDILPPTNVGSNTP-NH2
SMILES: CC[C@H](C)[C@H](NC(=O)[C@H](CC(=O)O)NC(=O)[C@H](CCCNC(=N)N)NC(=O)[C@H](CC(=O)O)NC(=O)[C@H](CCCNC(=N)N)NC(=O)[C@H](CC(=O)O)NC(=O)[C@@H](NC(=O)[C@H](Cc1ccccc1)NC(=O)[C@H](Cc1c[nH]cn1)NC(=O)[C@H](CCCNC(=N)N)NC(=O)[C@H](CC(C)C)NC(=O)[C@H](Cc1ccccc1)NC(=O)[C@H](CC(=O)O)NC(=O)[C@H](C)NC(=O)[C@H](CC(C)C)NC(=O)[C@H](CCCNC(=N)N)NC(=O)[C@H](CCC(N)=O)NC(=O)[C@@H](NC(=O)[C@@H](NC(=O)[C@H](C)NC(=O)[C@@H](NC(=O)[C@H](CO)NC(=O)[C@H](CC(C)C)NC(=O)[C@H](CCC(N)=O)NC(=O)[C@H](CO)NC(=O)[C@H](C)NC(=O)CC[C@H](NC(=O)CCCCCCCCCCCCCCCCCCC(=O)O)C(=O)O)[C@@H](C)O)C(C)C)[C@@H](C)O)[C@@H](C)O)C(=O)N[C@@H](CC(C)C)C(=O)N1CCC[C@H]1C(=O)N1CCC[C@H]1C(=O)N[C@H](C(=O)N[C@@H](CC(N)=O)C(=O)N[C@H](C(=O)NCC(=O)N[C@@H](CO)C(=O)N[C@@H](CC(N)=O)C(=O)N[C@H](C(=O)N1CCC[C@H]1C(N)=O)[C@@H](C)O)C(C)C)[C@@H](C)O
B6: polypeptide derivative M6 (peptide)
peptide: {C20 diacid-γGlu}-ASQLSTAATQRLADFLRHFTDRDRDILPPTNVGSNTP-NH2
SMILES: CC[C@H](C)[C@H](NC(=O)[C@H](CC(=O)O)NC(=O)[C@H](CCCNC(=N)N)NC(=O)[C@H](CC(=O)O)NC(=O)[C@H](CCCNC(=N)N)NC(=O)[C@H](CC(=O)O)NC(=O)[C@@H](NC(=O)[C@H](Cc1ccccc1)NC(=O)[C@H](Cc1c[nH]cn1)NC(=O)[C@H](CCCNC(=N)N)NC(=O)[C@H](CC(C)C)NC(=O)[C@H](Cc1ccccc1)NC(=O)[C@H](CC(=O)O)NC(=O)[C@H](C)NC(=O)[C@H](CC(C)C)NC(=O)[C@H](CCCNC(=N)N)NC(=O)[C@H](CCC(N)=O)NC(=O)[C@@H](NC(=O)[C@H](C)NC(=O)[C@H](C)NC(=O)[C@@H](NC(=O)[C@H](CO)NC(=O)[C@H](CC(C)C)NC(=O)[C@H](CCC(N)=O)NC(=O)[C@H](CO)NC(=O)[C@H](C)NC(=O)CC[C@H](NC(=O)CCCCCCCCCCCCCCCCCCC(=O)O)C(=O)O)[C@@H](C)O)[C@@H](C)O)[C@@H](C)O)C(=O)N[C@@H](CC(C)C)C(=O)N1CCC[C@H]1C(=O)N1CCC[C@H]1C(=O)N[C@H](C(=O)N[C@@H](CC(N)=O)C(=O)N[C@H](C(=O)NCC(=O)N[C@@H](CO)C(=O)N[C@@H](CC(N)=O)C(=O)N[C@H](C(=O)N1CCC[C@H]1C(N)=O)[C@@H](C)O)C(C)C)[C@@H](C)O

These binders were tested against T1, human amylin receptor (AMY3) on … (assay: cell-based or functional assay).

EC50/nM, CRE-luciferase reporter in amylin receptor/CRE-luc CHO cells	Relative activity (the EC50 ratio of Cagrilintide to the compound)	Binder
0.034 nM	78%	B1
0.026 nM	100%	B2
0.004 nM	110%	B3
0.066 nM	39%	B4
0.049 nM	53%	B5
0.042 nM	62%	B6
